The chains are these.
B1: TPR t1 (parent)
chain: GACCAAUCUGCCCUCAGAGCUCGAGAACAUCUUCGGAUGCAGAGGAGGCAGGCUUCGGUGGCGCGAUAGCGCCAACGUCCUCAACCUCCAAUGCAUCCCACCACAUGAUGAUGCCUGAAGAGCCUUGGUUUUUUG

The variants in this data set derive from B1. Put plainly: polymerase ribozyme fitness, log enrichment relative to wild type (log ratio); higher = more active; in vitro selection for triplet polymerase activity. In outline: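 Each subunit of a heterodimeric triplet polymerase ribozyme was mutagenized into a library by PCR, transcribed, and subjected to one round of in vitro selection, run in triplicate. Libraries were annealed with a biotinylated primer, the partner subunit and triplets, incubated frozen at −7 °C, and extended constructs were gel-excised, captured on streptavidin beads and recovered by RT-PCR. Input and output libraries were sequenced on Illumina, keeping genotypes with ≥10 input reads and ≥1 read per output. Fitness is log base 2 of genotype enrichment divided by wild-type enrichment, from inverse-variance-weighted replicate averages.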
Take GACCAAUCUGCCCUCAGAGCUCGAGAACAUCUUCGGAUGCAGAGGAGGCAGGUUUCGGUGGCACGAUAGCGCCAACGUCCACAACCUCCAAUGCAUCCCACCACAUGAUGAUGCCUGAAGAGCCUUGGUUUUUUG [C53U G63A U81A]: the “polymerase ribozyme fitness (log ratio)” value is -2.54.

As to GACCAAUCUGCCCUCAGAGCUCGAGAACAUCUUCGGAUGCAGAGGAGGCAGGUUUCGGUGGCGCGAUAGCUCCAACGUCCUCAACCUCUAAUGCAUCCCACCACAUGAUGAUGCUUGAAGAGCCUUGGUUUUUUG [C53U G71U C89U C115U], the “polymerase ribozyme fitness (log ratio)” value was -3.54.

As to GACCAAUCUGCCCUCAGAGCUCGAGAACAUCUUCGGAUGCAGAGGAGGCAGGCAUCGGUGGCGCGAUAGGGCCAACGUCCUCAACCUCCAAUGCAUCCCACCACAUGAUGAUGCCUGGAGAGCCUUGGUUUUAUU [U54A C70G A118G U133A G135U], the “polymerase ribozyme fitness (log ratio)” value is -2.84.

As for GACCAAUCUGCCCUCAGAGCUCGAGAACAUCUUCGGAUGCAGAGGAGGCAGGCAUCGGUGGCGCGAUAGCGCCAACGUCCUCAACCUCCAAUGCAUCCCACCACUUGAUGAUGCCUGAAGAGCCUUGGUUUUUUG [U54A A105U], the “polymerase ribozyme fitness (log ratio)” value was -1.84. For GACCAAUCUGCCCUCAGAGCUCGAGAACAUCUUCGGAUGCAGAGGAGGCAGGUUUCGGUGGCACGAUAGCGCCAACGUCCUCAACCUCCAAUGCAACCCACCACAUGAUGAUGCCUGAAGAGCCUUGGUUUUUUG [C53U G63A U96A] the value was -2.3; for GACCAAUCUGCCCUCAGAGCUCGAGAACAUCUUCGGAUGCAGAGGAGGCAGGCAUAGGUGGCGCGAUAGCGCCAACGUCCUCAACCUCCAAUGCAUCCCACCACAUGAUGAUGCCUGAAGAGCAUUGGUUUUUUG [U54A C56A C124A], 1.58.

For the variant GACCAAUCUGCCCUCAGAGCUCGAGAACAUCUUCGGAUGCAGAGGAGGCAGGCAUCGGUGGAGCGAUAGCGCCAACGUCCUCAACCUCCAAUGCCUCCCACCACAUGAUGAUGCCUGAAGAGCCUUGGUUUUUUG [U54A C62A A95C], the “polymerase ribozyme fitness (log ratio)” value is -2.03. With GACCAAUCUGCCCUCAGAGCUCGAGAACAUCUUCGGAUGCAGAGGAGGCAGGUCUCGGUGGCGCGAUAGCGCCAACGUCCUCAACCUCCGAUGCAUCCCACCACAUGAUGAUGCCUGAAGAACCUUGGUUUUUUG [C53U U54C A90G G122A] the figure was -0.961; with GACCAAUCUGCCCUCAGAGCUCGAGAACAUCUUCGGAUGCAGAGGAGGCAGGUUUCGGUGGCGCGAUAGCGCCAACGUCCUCAACCACCAAUGCAUCCCACCACAUGAUGAUGCCUGAAGAGCCUUGGUUUUUUG [C53U U87A], -0.467; with GACCAAUCUGCCCUCAGAGCUCGAGAACAUCUUCGGAUGCAGAGGAGGCAGGUUGCGGUGGCUCGAUAGCGCCAACGUCCCCAACCUCCAAUUCAUCCCACCACAUGAUGAUGCCCGAAGAGCCUUGGUUUUUUC [C53U U55G G63U U81C G93U U116C G135C], -5.21. For GACCAAUCUGCCCUCAGAGCUCGAGAACAUCUUCGGAUGCAGAGGAGGCAGGCAUCGGUGGUGCGAUAGCGCCAACGUCCUCAACCUCCAAUGCAGCCCACCACAUGAUGAUGCCUGAAGAGCCUUGGUUUUUUG [U54A C62U U96G] the value was -0.523.

Take GACCAAUCUGCCCUCAGAGCUCGAGAACAUCUUCGGAUGCAGAGGAGGCAGGCAUAGGUGGCGCGAUAGCGCCAACGUCCUCAACCUCCAAUGCAUCCCACCACAUGAUGAUGCCUGAAGAGCCUUGGUUUUUUG [U54A C56A]: the “polymerase ribozyme fitness (log ratio)” value came to 0.502. Regarding GACCAAUCUGCCCUCAGAGCUCGAGAACAUCUUCGGAUGCAGAGGAGGCAGGUUUCGGUGGCGCGAUAGCGCCAACGUCCUCAACCUCCAAUGCAUCCCACCACAUGAUGAUGCCUGAAAAGCCUUGGUUUUUUG [C53U G120A], the “polymerase ribozyme fitness (log ratio)” value turned out to be 0.773. With GACCAAUCUGCCCUCAGAGCUCGAGAACAUCUUCGGAUGCAGAGGAGGCAGGUUUCGGUGGCGCGAUAGCGCCAACGUCCUCAACCUCCAAUGCAUCCCACCACAUGAUGAUGCCUGAAUAGCCUUGGUUUUUUG [C53U G120U] the figure was -0.193. With GACCAAUCUGCCCUCAGAGCUCGAGAACAUCUUCGGAUGCAGAGGAGGCAGGUUUCGGUGGCGCGAUAGCGCCAACGUCCUCAACCUCCAAUACAUCCCACCCCAUGAUGAUGCCUGAAGAGCCUUGGUUUUUUG [C53U G93A A103C] the figure was -5.92; with GACCAAUCUGCCCUCAGAGCUCGAGAACAUCUUCGGAUGCAGAGGAGGCAGGUUUCGGUGGCGCGAUACCGCCAACGUCCUCAACCUCCAAUGCAUCCCACCACAUGAUGAUGCCUGAAGAGCCUUGGUUUUUUG [C53U G69C], -1.01; with GACCAAUCUGCCCUCAGAGCUCGAGAACAUCUUCGGAUGCAGAGGAGGCAGGUUUCGGUGGCGCGAUAGCGCCAACGUCCUCAACCUCCAAUGCAUCCCACCACAUGAUGAUGCCUGAAGAGCCUUGGUUUUUUU [C53U G135U], -1.02. For GACCAAUCUGCCCUCAGAGCUCGAGAACAUCUUCGGAUGCAGAGGAGGCAGGCAUCGGUGGCGCGAUAGCGCCAACGUCCUCAACCUCCAAUGCCUCCCACCACAUGAUGAUGCCUGAAGAGCCUUGGUUUUUUG [U54A A95C], the “polymerase ribozyme fitness (log ratio)” value is -0.767. In the case of GACCAAUCUGCCCUCAGAGCUCGAGAACAUCUUCGGAUGCAGAGGAGGCAGGUUUCGGUGGCUCGAUAGCGCCAACGUCCUCAACCUCCAAUGCAUCCCACCACAUGAUGAUGCCUGAAGAGCCUUGGUUUUUUG [C53U G63U], the “polymerase ribozyme fitness (log ratio)” value is -1.11.

As to GACCAAUCUGCCCUCAGAGCUCGAGAACAUCUUCGGAUGCAGAGGAGGCAGGUUUCGGUGGCGCGAUAGCGCCAACGUCCUCAACCUCCAAUGCAUCCCACCACAUGAUGAUGCCUGAAGAGCCUGGGUUUUUUG [C53U U126G], the “polymerase ribozyme fitness (log ratio)” value is -1.77.

Regarding GACCAAUCUGCCCUCAGAGCUCGAGAACAUCUUCGGAUGCAGAGGAGGCAGGUUGCGGUGGCGCGAUAGCGCCAACGUCCUCAACCUCCAAUGCAUCCCACCAUAUGAUGAUGCCUGAAGAGCCUUGGUUUUUUG [C53U U55G C104U], the “polymerase ribozyme fitness (log ratio)” value worked out at 0.237.

The values above are taken from the RNAGym collection of RNA variant scans (doi:10.1073/pnas.2313332121).
